Measurements taken from paper PMC9365698, “A physical wiring diagram for the human immune system” (Nature, 2022).

Key:
Experiment in all cases: SAVEXIS (scalable arrayed multi-valent extracellular interaction screen); biotinylated bait (100 fmol per well) captured on streptavidin-coated 384-well plates; prey multimerised on streptavidin-HRP (25 fmol protein with 6.25 fmol SAV-HRP); 60 min at 20 °C in 2% BSA in HBS pH 7.4 (1 mM MgCl2, 2 mM CaCl2); desthiobiotin washes; TMB absorbance at 650 nm; both bait-prey orientations; primary and secondary screen
Conditions in all cases: both partners purified
[1] = biological target: T1, Plasmodium falciparum P41 protein (Plasmodium falciparum, UniProt Q8I1Y0 21-378)
T1 construct: P41 protein of Plasmodium falciparum; P41 was the bait in two control wells of every screening plate
T1 sequence: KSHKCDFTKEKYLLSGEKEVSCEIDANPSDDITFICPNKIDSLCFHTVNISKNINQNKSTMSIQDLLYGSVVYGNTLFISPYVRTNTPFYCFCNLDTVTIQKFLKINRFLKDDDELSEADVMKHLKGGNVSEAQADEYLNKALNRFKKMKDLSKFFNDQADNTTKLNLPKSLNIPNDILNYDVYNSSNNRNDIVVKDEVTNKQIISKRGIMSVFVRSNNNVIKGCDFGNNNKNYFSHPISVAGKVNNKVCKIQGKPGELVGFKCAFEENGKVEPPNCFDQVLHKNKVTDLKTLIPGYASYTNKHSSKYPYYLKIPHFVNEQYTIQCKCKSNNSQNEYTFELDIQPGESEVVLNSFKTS

JAG1 = biological target: T2, JAG1 (human, UniProt P78504 34-1067, biotin on the biotin-acceptor site (enzymatic, co-transfected BirA))
T2 construct: JAG1 (Jagged-1), human, full ectodomain; also called Jagged ligands

PVR = biological target: T3, PVR (human, UniProt P15151 21-343, biotin on the biotin-acceptor site (enzymatic, co-transfected BirA))
T3 construct: PVR (poliovirus receptor), human, full ectodomain
T3 sequence (looked up): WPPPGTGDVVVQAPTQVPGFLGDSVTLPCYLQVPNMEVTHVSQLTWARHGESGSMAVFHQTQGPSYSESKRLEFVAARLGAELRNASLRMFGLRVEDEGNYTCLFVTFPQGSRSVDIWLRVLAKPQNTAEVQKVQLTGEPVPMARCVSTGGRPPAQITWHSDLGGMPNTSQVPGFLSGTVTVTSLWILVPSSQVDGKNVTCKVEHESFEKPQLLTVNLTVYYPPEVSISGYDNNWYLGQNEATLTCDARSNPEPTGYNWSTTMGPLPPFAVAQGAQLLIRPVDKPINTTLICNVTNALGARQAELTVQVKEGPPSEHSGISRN

B1: Plasmodium falciparum P12 (natural protein)
chain: HKNLTCDFNDVYKLEFHPNQQTSVTKLCNLTPNVLEKVTIKCGSDKLNYNLYPPTCFEEVYASRNMMHLKKIKEFVIGSSMFMRRSLTPNKINEVSFRIPPNMMPEKPIYCFCENKKTITINGSNGNPSSKKDIINRGIVEIIIPSLNEKVKGCDFTTSESTIFSKGYSINEISNKSSNNQQDIVCTVKAHANDLIGFKCPSNYSVEPHDCFVSAFNLSGKNENLENKLKLTNIIMDHYNNTFYSRLPSLISDNWKFFCVCSKDNEKKLVFTVEASISSSNTKLASRDNTYQDYISN
notes: P12 protein of Plasmodium falciparum; P12 was presented as a prey (multimerised on streptavidin-HRP) for the positive control
- binding result [1]: binds

B2: VASN (receptor, human, UniProt Q6EMK4 24-575, looked up)
chain: CPSGCQCSQPQTVFCTARQGTTVPRDVPPDTVGLYVFENGITMLDAGSFAGLPGLQLLDLSQNQIASLPSGVFQPLANLSNLDLTANRLHEITNETFRGLRRLERLYLGKNRIRHIQPGAFDTLDRLLELKLQDNELRALPPLRLPRLLLLDLSHNSLLALEPGILDTANVEALRLAGLGLQQLDEGLFSRLRNLHDLDVSDNQLERVPPVIRGLRGLTRLRLAGNTRIAQLRPEDLAGLAALQELDVSNLSLQALPGDLSGLFPRLRLLAAARNPFNCVCPLSWFGPWVRESHVTLASPEETRCHFPPKNAGRLLLELDYADFGCPATTTTATVPTTRPVVREPTALSSSLAPTWLSPTEPATEAPSPPSTAPPTVGPVPQPQDCPPSTCLNGGTCHLGTRHHLACLCPEGFTGLYCESQMGQGTRPSPTPVTPRPPRSLTLGIEPVSPTSLRVGLQRYLQGSSVQLRSLRLTYRNLSGPDKRLVTLRLPASLAEYTVTQLRPNATYSVCVMPLGPGRVPEGEEACGEAHTPPAVHSNHAPVTQAREGNLP
modifications: biotin on the biotin-acceptor site (enzymatic, co-transfected BirA)
notes: VASN (vasorin), human, full ectodomain; also called vasorin
- binding result (JAG1): binds

B3: KIR2DL5A (receptor, human, UniProt Q8N109 22-238, looked up)
chain: HEGGQDKPLLSAWPSAVVPRGGHVTLLCRSRLGFTIFSLYKEDGVPVPELYNKIFWKSILMGPVTPAHAGTYRCRGSHPRSPIEWSAPSNPLVIVVTGLFGKPSLSAQPGPTVRTGENVTLSCSSRSSFDMYHLSREGRAHEPRLPAVPSVNGTFQADFPLGPATHGGTYTCFGSLHDSPYEWSDPSDPLLVSVTGNSSSSSSSPTEPSSKTGIRRH
modifications: biotin on the biotin-acceptor site (enzymatic, co-transfected BirA)
notes: KIR2DL5A, human, full ectodomain
- binding result (PVR): binds
